Read-outs that look alike come from different tables or passages of the source.
What was measured:
[1] = system: PSMA-positive 22RV1 xenografts; test: Efficacy in castrate or intact scid mice bearing androgen-independent 22RV1 xenograft; format: in vivo, C.B-17 scid mice; conditions: 12.93 mg/kg
Procedure: Prostate tumors can be broadly classified as either androgen-dependent or androgen-independent. […] The 22RV1 cell line was originally developed as androgen-independent and can be grown as a xenograft in C.B-17 scid mice that have been left either intact or castrated. […] C.B-17 scid mice bearing CWR22 xenografts approximately 200 mm^3 in size received IV injections (200 μL constant volume) of the test articles according to the dosage and schedule shown in the Table 24.

CD-1 mice = system: CD-1 mice
From the text: Use of both mice and cynomolgus monkeys for nonclinical testing allowed comparison of exposure and toxicity across species on the basis of body surface area (mg/m^2), and thus aided in selecting the SSD for the proposed Phase 1 clinical trial.

LNCaP cells = test: In vitro pharmacodynamics, LNCaP proliferation assay; format: cell-based, human; conditions: 6-day exposure in tissue culture
Procedure: At the end of that period the drug containing media was removed and replaced with drug free media until a total of 144 hours elapsed from the start of the experiment. The resulting effect of drug exposure on proliferation was then determined.

[2] = system: PSMA-positive CWR22 xenografts; test: Efficacy in PSMA-positive CWR22 xenografts; format: in vivo, C.B-17 scid mice; conditions: for TGD: dosing interval study, five cycles
Procedure: (§1) Experiment: Male SCID mice were implanted by serial passage of CWR22 prostate tumor xenograft. […] All treatments were given intravenously. Tumor growth and animal health were continually monitored throughout the study with tumor growth measured every 3 days.
Experiment: Male C.B-17 SCID mice bearing CWR22 xenografts approximately 200 mm^3 in size received IV injections (200 μL constant volume) of the test articles according to the dose and schedule as shown in Table 22.
Male C.B-17 scid mice bearing CWR22 xenografts approximately 200 mm^3 in size received IV injections (200 μL constant volume) of the test articles according to the dose and schedule shown in the Table 23.
The objective of this study was to determine how much the dosing interval could be increased at this dosage before a loss of efficacy in terms of TGD would be observed. […] The growth delays for the other schedules were: q7d, 53.0 days; q21d, 48.0 days; and q28d, 26.9 days. Similar to other studies using the CWR22 xenograft model, no curative responses were observed, with all tumors eventually resuming growth (FIG. 18).
as §1, with “intravenously and on a schedule of every three days for 5 doses.” for “intravenously.”
as §1, with “intravenously and on a schedule of every seven days for 5 doses.” for “intravenously.”

LNCaP = test: Binding to LNCaP by FACS; set-up: species or system human
PSMA-negative cells = conditions: read-out: Non-specific in vitro cytotoxicity towards PSMA-negative cells, IC50
[3] = system: micronucleated polychromatic erythrocytes; test: Mouse micronucleus test; conditions: in vivo
[4] = Pharmacokinetics of deJ591 and deJ591-DM1 in cynomolgus monkeys
[5] = MLN2704 300 mg/m^2 (100 mg/kg), single IV, CD-1 mice
[6] = study CTBR 57355, deJ591-DM1 6 mg/kg (72 mg/m^2)
[7] = study CTBR 57355, deJ591-DM1 10 mg/kg (120 mg/m^2)
[8] = study CTBR 57355, deJ591-DM1 16 mg/kg ([…]^2)
[9] = study CTBR 57355, deJ591-DM1 30 mg/kg (360 mg/m^2)
[10] = study CTBR 57355, mean over dosages
[11] = study KLA W-171, deJ591-DM1 6 mg/kg (72 mg/m^2)

For “deJ591-DM1: deJ591 conjugated via SPP disulfide linker to the maytansinoid DM1, DM1/antibody ratio about 3.5”, the “Tumor Growth Delay” value ([1]; Castrate Mice, q3dX5) was 26.3 days, the “Tumor Growth Delay” value ([1]; Intact Mice, q3dX5) was 13.1 days and the “Tumor Growth Delay” value ([1]; Intact Mice, q7dX5) was 7.8 days. For the same substance, the “Degree of Toxicity and Major Target Organs” value (shortened to “Degree”) (CD-1 mice; 30 mg/m^2 (10 mg/kg)) was “Mild toxicity to testes”, the “Degree” value (CD-1 mice; 48 mg/m^2 (16 mg/kg)) was “Mild to moderate toxicity to reproductive” and the “Degree” value (CD-1 mice; 90 mg/m^2 (30 mg/kg)) was “Mild to moderate toxicity to reproductive,”. The “Degree” value (CD-1 mice; 300 mg/m^2 (100 mg/kg)) was “Moderate to severe toxicity to reproductive,”, the mortality (CD-1 mice; 480 mg/m^2 (160 mg/kg)) was 100% mortality attributed to severe and the “Degree” value (CD-1 mice; MLN2704 30 mg/m^2 (10 mg/kg), single IV, CD-1 mice) was “Mild toxicity to testes”. The “Degree” value (CD-1 mice; MLN2704 48 mg/m^2 (16 mg/kg), single IV, CD-1 mice) was “Mild to moderate toxicity to”, the “elevated AST and ALT values” (CD-1 mice; MLN2704 90 mg/m^2 (30 mg/kg), single IV, CD-1 mice) was “mitosis/necrosis of liver; slightly” and the “elevated AST and ALT values” (CD-1 mice; MLN2704 180 mg/m^2 (60 mg/kg), single IV, CD-1 mice) was “mitosis/necrosis of liver; moderately”. The “elevated AST and ALT values” (CD-1 mice; [5]) was “mitosis/necrosis of liver; markedly”, the mortality (CD-1 mice; [5]) was 30% mortality attributed to severe and the “Degree” value (CD-1 mice; MLN2704 300 mg/m^2 (100 mg/kg), single IV, CD-1 mice, survivors) was “toxicity. Moderate to severe toxicity to”. The mortality (CD-1 mice; MLN2704 480 mg/m^2 (160 mg/kg), single IV, CD-1 mice) was 100% mortality attributed to severe, the “Mouse LD10 (female)” value (CD-1 mice; calculated) was 95 mg/kg and the “Mouse LD10 (female), DM1-Equivalents received” value (CD-1 mice; calculated) was 5.13 mg/m^2. For the same substance, the “Mouse LD10 (male)” value (CD-1 mice; calculated) was 96 mg/kg, the “Mouse LD10 (male), DM1-Equivalents received” value (CD-1 mice; calculated) was 5.18 mg/m^2 and the lower testes weights (CD-1 mice; lowest tested dosage 30 mg/m^2) was 10%. The “Mouse LD100” value (CD-1 mice; mouse, in vivo) was 160 mg/kg, the “Mouse MTD” value (CD-1 mice; mouse, in vivo) was 60 mg/kg and the “Mouse STD, DM1-Equivalents received” value (CD-1 mice; mouse, in vivo) was 5.40 mg/m^2. The LD100 (CD-1 mice; single IV, CD-1 mice) was 160 mg/kg, the MTD (CD-1 mice; single IV, CD-1 mice) was 60 mg/kg and the “LD10 (females)” value (CD-1 mice; single IV, CD-1 mice, females, calculated) was 95 mg/kg. The “LD10 (males)” value (CD-1 mice; single IV, CD-1 mice, males, calculated) was 96 mg/kg, the “IC50 on PSMA-positive LNCaP cells” value (LNCaP cells) was 0.21 µg/mL and the “return to normal growth kinetics following the last dose” value ([2]; 7.25 mg/kg every seven days for 5 doses) was “approximately 10 days”. The “Tumor Growth Delay” value ([2]; 7.28 mg/kg (120 μg/kg DM1-equivalents), q3dX5, IV) was 27.1 days, the “Tumor Growth Delay” value ([2]; 7.28 mg/kg (120 μg/kg DM1-equivalents), qdX5, IV) was 19.6 days and the tumor growth ([2]; 14.5 mg/kg every seven days for 5 doses) was “suppression of tumor growth with some reduction from the initial tumor volume”. The tumor growth ([2]; 14.5 mg/kg, 7 and 14 day dosing interval) was “apparent block in tumor growth with a resumption of normal growth kinetics approximately 30 days after the last dose”, the tumor growth ([2]; 14.5 mg/kg, 21 or 28 day dosing interval) was “slowed growth” and the “Tumor Growth Delay” value ([2]; 14.56 mg/kg (240 μg/kg DM1-equivalents), q3dX5, IV) was 36.7 days. For the same substance, the “Tumor Growth Delay” value ([2]; 14.56 mg/kg (240 μg/kg DM1-equivalents), qdX5, IV) was 26.9 days, the “Tumor Growth Delay” value ([2]; Comparison II, 4.8 mg/kg (90 μg/kg DM1-equivalents), q3dX5) was 31.9 days and the “Tumor Growth Delay” value ([2]; Comparison II, 6.5 mg/kg (120 μg/kg DM1-equivalents), q3dX5) was 37.8 days. For the same substance, the “Tumor Growth Delay” value ([2]; Comparison II, 6.5 mg/kg (120 μg/kg DM1-equivalents), q7dX5) was 33.9 days, the “Tumor Growth Delay” value ([2]; Comparison II, 9.7 mg/kg (180 μg/kg DM1-equivalents), q3dX5) was 42.7 days and the “Tumor Growth Delay” value ([2]; Comparison II, 12.93 mg/kg (240 μg/kg DM1-equivalents), q3dX5) was 46.4 days. For the same substance, the “Tumor Growth Delay” value ([2]; Comparison II, 12.93 mg/kg (240 μg/kg DM1-equivalents), q7dX5) was 66.8 days, the associated toxicity ([2]; all dosages, Comparison I) was “less for all dosages of deJ591-DM1 relative to maytansine alone” and the curative effect ([2]; doses and schedules of Comparison I) was “non-curative”. For the same substance, the TGD ([2]; 12.93 mg/kg, q7d) was 53.0 days, the TGD ([2]; 12.93 mg/kg, q14d) was 75.7 days and the TGD ([2]; 12.93 mg/kg, q21d) was 48.0 days. For the same substance, the TGD ([2]; 12.93 mg/kg, q28d) was 26.9 days, the “Efficacious dosage in SCID mouse xenografts, DM1-Equivalents received” value ([2]; mouse, in vivo) was ~0.72 mg/m^2 and the “In vivo activity - mouse xenograft model” value ([2]; reference standard batch) was “Delays tumor growth”. For the same substance, the “effect on large tumors, 500 to 2000 mm^3” value ([2]; second course, 12.93 mg/kg) was “potent regressions”, the EC50 (LNCaP; listed as 1552-60S) was 7.9 nM and the EC50 (LNCaP; listed as N067020302) was 6.9 nM. The IC50 (PSMA-negative cells; listed as 1552-60S) was 13.6 nM, the IC50 (PSMA-negative cells; listed as N067020302) was 17.1 nM and the “Lowest genotoxic dosage in ICR mice, DM1-Equivalents received” value [3] was 0.54 mg/m^2. For the same substance, the “Tmax, analyte Total deJ591” value [4, 6] was 60 min, the “Tmax, analyte deJ591-DM1” value [4, 6] was 48 min and the “AUC, analyte Total deJ591” value [4, 6] was 17200 µg·h/mL. For the same substance, the “AUC, analyte deJ591-DM1” value [4, 6] was 6720 µg·h/mL, the “Tmax, analyte deJ591-DM1” value [4, 7] was 36 min and the “t1/2, analyte Total deJ591” value [4, 7] was 200 h. The “AUC, analyte Total deJ591” value [4, 7] was 31700 µg·h/mL, the “AUC, analyte deJ591-DM1” value [4, 7] was 10600 µg·h/mL and the “Tmax, analyte Total deJ591” value [4, 8] was 54 min. For the same substance, the “Tmax, analyte deJ591-DM1” value [4, 8] was 48 min, the “AUC, analyte Total deJ591” value [4, 8] was 44400 µg·h/mL and the “AUC, analyte deJ591-DM1” value [4, 8] was 15600 µg·h/mL. For the same substance, the “Tmax, analyte deJ591-DM1” value [4, 9] was 48 min, the “AUC, analyte Total deJ591” value [4, 9] was 95000 µg·h/mL and the “AUC, analyte deJ591-DM1” value [4, 9] was 33500 µg·h/mL. The “Tmax, analyte Total deJ591” value [4, 10] was 54 min, the “Tmax, analyte deJ591-DM1” value [4, 10] was 42 min and the “Tmax, analyte Total deJ591” value [4, 11] was 300 min. For the same substance, the “Tmax, analyte deJ591-DM1” value [4, 11] was 60 min, the “AUC, analyte Total deJ591” value [4, 11] was 19900 µg·h/mL and the “AUC, analyte deJ591-DM1” value [4, 11] was 5020 µg·h/mL.

From patent publication US7666414B2, “Methods for treating prostate cancer using modified antibodies to prostate-specific membrane antigen” (Cornell Research Foundation, Inc., priority 2001, dated 2010)
